# In article PMC8175722:
# T1: DC-SIGN-Fc (recombinant DC-SIGN fused to Fc), Q9NNX6
# T1 chain: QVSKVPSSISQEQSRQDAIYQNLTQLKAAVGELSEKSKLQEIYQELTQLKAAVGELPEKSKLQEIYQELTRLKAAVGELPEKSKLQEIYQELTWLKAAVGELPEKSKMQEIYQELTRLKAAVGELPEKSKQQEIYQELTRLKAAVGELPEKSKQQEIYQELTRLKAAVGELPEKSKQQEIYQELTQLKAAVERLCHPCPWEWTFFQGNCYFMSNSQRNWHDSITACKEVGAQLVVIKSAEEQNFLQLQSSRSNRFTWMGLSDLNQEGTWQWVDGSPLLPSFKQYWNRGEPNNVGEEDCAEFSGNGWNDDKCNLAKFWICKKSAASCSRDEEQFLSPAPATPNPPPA
# B1: DC-SIGN-Fc (recombinant DC-SIGN fused to Fc), Q9NNX6 59-404 (Fc fusion)
# chain: QVSKVPSSISQEQSRQDAIYQNLTQLKAAVGELSEKSKLQEIYQELTQLKAAVGELPEKSKLQEIYQELTRLKAAVGELPEKSKLQEIYQELTWLKAAVGELPEKSKMQEIYQELTRLKAAVGELPEKSKQQEIYQELTRLKAAVGELPEKSKQQEIYQELTRLKAAVGELPEKSKQQEIYQELTQLKAAVERLCHPCPWEWTFFQGNCYFMSNSQRNWHDSITACKEVGAQLVVIKSAEEQNFLQLQSSRSNRFTWMGLSDLNQEGTWQWVDGSPLLPSFKQYWNRGEPNNVGEEDCAEFSGNGWNDDKCNLAKFWICKKSAASCSRDEEQFLSPAPATPNPPPA
# Assays:
# [1] = biological target: DC-SIGN-HA (DC-SIGN fused to the HA epitope tag) (UniProt Q9NNX6); test: SEC; analytical gel filtration of recombinant DC-SIGN-Fc and DC-SIGN-HA; data not shown; the high Stokes radius prevented a more accurate measurement of molecular mass
# [2] = biological target: mannosylated surface IgM (sIgM-Mann) of the FL-derived cell line WSU-FSCCL (human (endogenous in WSU-FSCCL)) (UniProt P01871)
# [3] = biological target: mannosylated surface IgM (sIgM-Mann) of the FL-derived cell line WSU-FSCCL (human (endogenous in WSU-FSCCL)) (UniProt P01871); remark: listed apart in the source
# [4] = biological target: T1, DC-SIGN-Fc (recombinant DC-SIGN fused …); test: SEC; analytical gel filtration of recombinant DC-SIGN-Fc and DC-SIGN-HA; data not shown; the high Stokes radius prevented a more accurate measurement of molecular mass; conditions: remark: other sources report otherwise
# Sequence of UniProt P01871 (P01871 whole entry, looked up, the tested form may be a part): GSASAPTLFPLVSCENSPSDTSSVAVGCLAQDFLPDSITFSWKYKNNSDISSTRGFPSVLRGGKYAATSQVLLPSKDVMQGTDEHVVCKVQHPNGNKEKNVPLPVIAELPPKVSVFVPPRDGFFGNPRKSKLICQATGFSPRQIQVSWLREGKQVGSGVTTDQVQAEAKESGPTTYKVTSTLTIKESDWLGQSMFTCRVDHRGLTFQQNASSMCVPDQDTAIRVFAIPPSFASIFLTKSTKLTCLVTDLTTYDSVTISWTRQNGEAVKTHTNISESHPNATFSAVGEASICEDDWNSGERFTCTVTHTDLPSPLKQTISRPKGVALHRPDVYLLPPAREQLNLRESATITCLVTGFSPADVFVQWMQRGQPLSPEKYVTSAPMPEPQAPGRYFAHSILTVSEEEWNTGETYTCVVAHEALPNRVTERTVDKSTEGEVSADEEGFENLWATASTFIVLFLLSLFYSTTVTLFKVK
molecule,measurement,setting,value
DC-SIGN-HA (DC-SIGN fused to the HA epitope tag) (from UniProt Q9NNX6 1-404) (natural protein),stoichiometry N,[1],> 4
same,inhibition of the anti-IgM-induced iCa2+ flux in WSU-FSCCL cells after pre-exposure to DC-SIGN-HA,[2],50%
DC-SIGN-Fc (recombinant DC-SIGN fused to Fc) (from UniProt Q9NNX6 59-404) (Fc fusion),inhibition of the anti-IgM-induced iCa2+ flux in WSU-FSCCL cells after pre-exposure to DC-SIGN-Fc,[2],80%
same,recovery of the anti-IgM-induced iCa2+ response in WSU-FSCCL cells after removal of pre-bound DC-SIGN-Fc with mannan (15 or 30 min at 37 °C),[3],50%
B1,stoichiometry N,[4],> 4
